Reference: the RNAGym collection of RNA variant scans (doi:10.1073/pnas.2313332121)

B1: TPR t1 (parent)
chain: GACCAAUCUGCCCUCAGAGCUCGAGAACAUCUUCGGAUGCAGAGGAGGCAGGCUUCGGUGGCGCGAUAGCGCCAACGUCCUCAACCUCCAAUGCAUCCCACCACAUGAUGAUGCCUGAAGAGCCUUGGUUUUUUG

Variants of: B1
Assay: polymerase ribozyme fitness, log enrichment relative to wild type (log ratio); higher = more active; in vitro selection for triplet polymerase activity
Outline: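 Fitness compares each genotype's enrichment to that of the wild type on a logarithmic scale, averaging replicates with inverse-variance weights. The logarithm is base 2. Enrichment came from Illumina sequencing of input and output libraries after one triplicate round of in vitro selection, which included frozen incubation at −7 °C, of PCR-built, transcribed mutant libraries of each subunit of a heterodimeric triplet polymerase ribozyme. Only genotypes with ≥10 input reads and ≥1 read per output were kept.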

Question: Which “polymerase ribozyme fitness (log ratio)” value does the source give for GACCAAUCUGCCCUCAGAGCUCGAGAACAUCUUCGGAUGCAGAGGAGGCAGGCUUAGGUGGCGCGAUAGCGCCAACGUCCUCGACCUCCAAUGCAUCCCACCACAUGAUGAUGCCUGAAGAGCCUUGGGUUUUUG [C56A A83G U129G] here?
Answer: -2.3

Question: For GACCAAUCUACGCUCAGAGCUCGAGAACAUCUUCGGAUGAAGAGGAGGCAGGCUUCGGUGGCGCGAUAGCGCCAACGUCCUCAACCUCCAAUGCAUCCCACCACAUGAUGAUGCUUGAGCAGCCUUGGUUAUUUG [G10A C12G C40A C115U A119G G120C U131A], which “polymerase ribozyme fitness (log ratio)” value is on record?
Answer: -0.621

Question: Which “polymerase ribozyme fitness (log ratio)” value does the source give for GACCAAUCUGCCCUCAGAGCUCGAGAACAUCUUCAGAUGCAGAGGAGGCAGGGUUCGGUGGCGCGAUAGCGCCAACGUCCUCAACCUCCAAUGCAUCCCACCAUAUGAUGAUGCCUUAAGAGCGUGGGUUUUUUG [G35A C53G C104U G117U C124G U126G] here?
Answer: -5.98

Question: Which “polymerase ribozyme fitness (log ratio)” value does the source give for GACCAAUCUGCCCUCAGAGCUCGAGAACAUCUUCGGAUGCAGAGGUGGCAGGCUUCGGUGGCGCGAUAGCGCCAACGUCCUUAACCUCCAAUUCAUCCCACCACAUGAUUAUGCCUGAAGAGCCUUGGUUUUUUG [A46U C82U G93U G110U] here?
Answer: -3.55

Question: With GACCAAUCUGCCCUCAGAGCUCGAGAACAUCUUCGGAUGCAGAGGAGGCAGGCUUCGGUUGCGCGAUAGCGCCAACGUCCUCAACCUCCAAUGCAUCCCACCACAUGAUGACGCCUGAAGAGCCUUGGUUUUUUG [G60U U112C] as the variant, how does the “polymerase ribozyme fitness (log ratio)” value read?
Answer: 1

Question: For GACCAAUCUGCCCUCAGAGCUCGAGAACAUCUUCGGAUGCAGAGGAGGCAGGCUUCGGUGGCGCGAUAGCGCCAACGUCCUCAACCUCCAAUCCAUCCCACCACAUGAUGAUGCCUGAAGAGCCUUGCUUUUUUG [G93C G128C], which “polymerase ribozyme fitness (log ratio)” value is on record?
Answer: -2.25

Question: With GACCAAUCUGCCCUCAGAGCUCGAGAACAUCUUCGGAUGCAGAGGAGCUAGGCUUCGGUGGCGCGAUAGCGCCAACGUCCUCAACCUCCAAUGCAUCCCACCACAUGAUGUUGCCUGAAGAGCCUUGGUUUUAUG [G48C C49U A111U U133A] as the variant, how does the “polymerase ribozyme fitness (log ratio)” value read?
Answer: -4.49

Question: For GACCAAUCUGCCCUCAGAGCUCGAGAACAUCUUCGGAUGCAGAGGAGUCAGGCUUCGGUGGCACGAUAGCGCCAACGUCCUCAACCUCCAAUGCAUCCCACCACAUGAUUAUGCCUGAAGAGCCUUGGUUUUUUG [G48U G63A G110U], which “polymerase ribozyme fitness (log ratio)” value is on record?
Answer: -4.15

Question: With GAGCAAUCUGCCCUCAGAGCUCGAGAACAUCUUCGGAUGCAGAGGAGGCAGGCUUCGGUGCCGCGAUAGCGCCAACGUCCUCAACCUCCAAUGCAUCCCACCACAUGAUGAUGCCUGAAGAGCCUUGGUUUUUUG [C3G G61C] as the variant, how does the “polymerase ribozyme fitness (log ratio)” value read?
Answer: -3.19

Question: With GACCAAUCUGCCCUCGGAGCUCGAGAACAUCUUCGGAUGUAGUGGAGGCAGGCUUCGGUGGCGCGAUAGCGGCAACGUCCUCAACCUCCAAUGCAUCCCACCACAUGAUGAUGCCUGAAGAGCCUUGGUUUUUUG [A16G C40U A43U C72G] as the variant, how does the “polymerase ribozyme fitness (log ratio)” value read?
Answer: -3.42

Question: For GACCAAUCUGCACUCAGAGCUCGAGAACAUCUUCGGAUGCAGAGGAGGCAGGCUUUGGUGGCGCGAUAGCGCCAACGUCCUCAACCUCCAAUGGAUCCCACCACAUGAUGAUGCCUGAAGAGCCUUGGUUUUUUG [C12A C56U C94G], which “polymerase ribozyme fitness (log ratio)” value is on record?
Answer: -2.21

Question: For GAUCAAUCUGCCCUCAGAGCUCGAGAACAUCUUCGGAUGCAGAGGAGGCAGGCUUCGGUGGCGCGAUAGCGCCUACGUCCUCAACCUCCAAUGCAUCCCACCACAGGAUAAUGCCUGAGGAGCCUUGGUUUUUUG [C3U A74U U106G G110A A119G], which “polymerase ribozyme fitness (log ratio)” value is on record?
Answer: -4.14

Question: With GACAAAUCUGCCCUCAGAGCUCGAGAACAUCUUCGGAUGCAGAGGAGGCAGGCUUAGGUGGCGCGAUAUCGCCAACGUCCUCAACCUCCCAUGCAUCCCACCACAUGAUGAUGCCUGAAGAGCCUUGGUUUUUUG [C4A C56A G69U A90C] as the variant, how does the “polymerase ribozyme fitness (log ratio)” value read?
Answer: -2.84

Question: Which “polymerase ribozyme fitness (log ratio)” value does the source give for GACCAAUCUGCCCUCAGAGCUCGAUAACAUCUUCGGAUGCAGAUGAGGCAGGCUUAGGUGGCGCGAUAGUGCCAACGUCCUCAACCUCCAAUGCAUCCCACCACAUGAGGAUGCCUGAAGAGCCUUGGUUUUUUG [G25U G44U C56A C70U U109G] here?
Answer: -7.02

Question: Which “polymerase ribozyme fitness (log ratio)” value does the source give for GACCCAUCUGCCCUCAGAGCUCGAGAACAUCUUCGGAUGCAGAGGAGGCAGGCUUCGGUGGCGCGAUAGCGCCAACGUCCUCAACCUCCAAUGCAUCCCACCACAUGAAGAUGCCUGAAGAGCCUUGGUUUUUUG [A5C U109A] here?
Answer: -4.8

Question: With GACCAAUCUGCCCUCAGAGCUCGAGAAUAUCUUCGGAUGCAGCGGAGGCAGGCUUCGGUGGCGCGAUAGCGCCAACGUCCUCAACCUCCAAUGCAUCCCACCACAUGAUGAUGCCUGAAGAGCCUUGGUUUUUUG [C28U A43C] as the variant, how does the “polymerase ribozyme fitness (log ratio)” value read?
Answer: -4.69

Question: Which “polymerase ribozyme fitness (log ratio)” value does the source give for GACCAAUCUGCCCUCAGAGCUCGAGAACAUCUUCGGAUGCAGAGGAGGCAGGCUUAGGUGGCACGAUAGCGCCAACGUCCUCAACCUCCAAUGCAUCCCACCACAUGAUGAUGCCUGAAGAGCCUUGGUUUUUUG [C56A G63A] here?
Answer: -2.26

Question: For GACCAAUCUGCCCUCAGAGCUAGAGAACAUCUUCGGAUGCAGAGGAGGCAGGCUUCGGUGGCGCGAUAGCGCCAACGUCCUCAACCUCCAAUGCAUCCCACCACAUGAUGAUGCCUGAGGAGCCUUGGUUUUUUG [C22A A119G], which “polymerase ribozyme fitness (log ratio)” value is on record?
Answer: -3.88

Question: For GACCAAUCUGCCGUCAGAGCUCGAGAACAUCUUCGGAUGCGGAGGAGUCAGGCUUCGGUGGCGCGAUAGCGCCAACGGCCUCAACCUCCACUGCAUCCCACCACAUGAUGAUGCCUGAAGAGCCUUGGUUUUUUG [C13G A41G G48U U78G A91C], which “polymerase ribozyme fitness (log ratio)” value is on record?
Answer: -5.06

Question: With GACUAAUCUGCCCUCAGAGCUCGAGAACAUCUUCGGUUGCAGAGGAGUCAGGCUUCGGUGGCGCGAUAGCGCGAACGUCCUCAACCUCCAAUGCAUCACACCACAGGAUGAAGCCUGAAGAGCCUUGGUUUUUUG [C4U A37U G48U C73G C98A U106G U112A] as the variant, how does the “polymerase ribozyme fitness (log ratio)” value read?
Answer: -5.16

Question: With GACCAAUCUGCCCUCAGAGCUCGAGAACAUCUUCGGAUGCAGAGGAGGCAGGCUUCGGUGGCGCGAUGGCGCCAACGUCCUCAACCGCCAAUGCAUCCCACCACAUGAUGAUGCCUGAAGAGCCUUGGUUUUUUG [A68G U87G] as the variant, how does the “polymerase ribozyme fitness (log ratio)” value read?
Answer: -3.29
